Measured values: patent US9968935B2, “Devices for cell assays” (Platypus Technologies, LLC, priority 2007, dated 2018)

Test system: HT-1080 cells
Test: Adherence and morphology of HT-1080 cells on photoimmobilized hyaluronic acid, before and after hyaluronidase treatment
Type: cell-based
Settings: 30 minute treatment, 50 microliters of 1000 U/ml, wells not phototreated with HA
Protocol: This example describes the ability to block adhesion of HT-1080 cells to a surface coated with hyaluronic acid (HA). The HA was functionalized with a photoactive linker and immobilized to the bottom of a well in a tissue culture plate. The material was prepared by reacting the carboxyl group of HA disaccharides with the amine group of a heterobifunctional crosslinker (4-[p-azidosalicylamido]butylamine, ASBA) via carbodiimide chemistry. The other end of the ASBA crosslinker contains a photoactive group, so this reaction renders the HA photoactive. […] Briefly, the HA was dissolved in MES buffer and reacted with EDC and Sulfo-NHS for 15 min at room temperature. The pH of the buffer was adjusted to ca. 7.0 with concentrated PBS and ASBA was added to the solution and allowed to react for 2 h at room temperature in a light-proof vial. The reaction was quenched using 50 mM Tris. Unreacted components and reaction by-products were removed via dialysis against diH2O using a 3,000 MW exclusion. The reaction product was protected from exposure to light during lyophilization. Three species of photoactive HA were prepared that varied according to the molecular weight of the HA chains: low, medium and high MW chains.
The lyophilized, photoactive HA was reconstituted in PBS and adjusted to a working concentration of 0.2 mg/ml. […]

Substance: Hyaluronidase
- effect of hyaluronidase on cells attached to control wells without HA (morphology, toxicity): did not have a significant effect
- effect of hyaluronidase on cells attached to control wells without HA (morphology, toxicity) (listed as HA-ase): does not cause any gross morphological changes or have any toxic effects
